The text below walks through data of publication PMC12276331, “Nanomechanical binding mechanism of ligands drives agonistic activity” (Nature Communications, 2025).

Assay [1] deals with T1, transmembrane hCD40 receptor expressed on the surface of CHO cells (CHO-CD40-GFP) (human, UniProt P25942 21-277).
T1 construct: CD40 (TNFR superfamily), human; expressed from a CD40 green fluorescent protein fusion construct (Origene #RG201977) on CHO cells; source: CHO cells, transfected (Lipofectamine 2000), G418-selected and sorted by GFP; on living cells
The experiment in a line: single-molecule force spectroscopy (AFM, SMFS); hCD40L coupled by its His6-tag to the PEG-tris-NTA AFM tip; living CHO cells expressing hCD40; room temperature; HEPES buffer (137 mM NaCl, 2.7 mM KCl, 10 mM HEPES, pH 7.4) with 50 µM NiCl2; contact time and pulling speed varied; Bell-Evans and Markov binding models. The note with it: one partner purified.

Assay [2] addresses T1, transmembrane hCD40 receptor expressed …. The assay is described as above. Particulars: one partner purified. The source holds these as a separate data set.

T1 sequence (P25942 21-277): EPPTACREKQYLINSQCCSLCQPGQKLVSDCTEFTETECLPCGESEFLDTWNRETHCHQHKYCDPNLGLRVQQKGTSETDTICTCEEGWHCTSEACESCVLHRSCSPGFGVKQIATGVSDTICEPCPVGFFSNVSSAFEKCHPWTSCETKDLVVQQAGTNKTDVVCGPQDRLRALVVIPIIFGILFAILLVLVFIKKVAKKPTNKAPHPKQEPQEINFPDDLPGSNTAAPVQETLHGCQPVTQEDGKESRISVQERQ

B1: Active trimeric human CD40 ligand (hCD40L/hCD154; residues 116G-261L) with N-terminal His6-tag (CDL-H5248) (ligand, UniProt P29965 116-261, looked up)
chain: GDQNPQIAAHVISEASSKTTSVLQWAEKGYYTMSNNLVTLENGKQLTVKRQGLYYIYAQVTFCSNREASSQAPFIASLCLKSPGRFERILLRAANTHSSAKPCGQQSIHLGGVFELQPGASVFVNVTDPSQVSHGTGFTSFGLLKL
notes: CD40 ligand (CD154), human, residues 116G-261L; Used for SMFS (coupled to the tip by its His6-tag through tris-NTA/Ni) and for HS-AFM; also called trimeric hCD40L; source: bought: AcroBiosystems, USA (CDL-H5248); not shown: His6, N-terminal, kept
For B1, the Kd in assay [1] is 3.2 µM. For the same molecule, in assay [2], binding was put at a Kd of 3.3 µM, the koff came out at 0.35 s⁻¹ and the kon was 160000 M⁻¹ s⁻¹.
